Measured values from CN116472284A.

Target: SARS-CoV-2 spike on ZsGreen SARS-CoV-2-pseudotyped lentivirus (SARS-CoV-2) (UniProt P0DTC2)
Assay: cell-based or functional assay

“Nb6-tri (trivalent Nb6 with two 20 amino acid linkers) (VHH)” was tested. Which IC50, inhibition of SARS-CoV-2 pseudotyped lentivirus infection did it give?
The IC50, inhibition of SARS-CoV-2 pseudotyped lentivirus infection was 1.2 nM.

And the fold gain of inhibitory activity against monovalent Nb6, pseudovirus?
The fold gain of inhibitory activity against monovalent Nb6, pseudovirus was 2000 fold.
